Measured values as given in the supplement of paper PMC10724198.
± gives the standard deviation of the averaged measurements.

How the values were obtained:
Saccharomyces cerevisiae [1] = test: protein stability index of tFT-peptide fusion (C-terminal peptide) (PSI (0-1 scale)); higher = more stable (slower turnover)
Protocol: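 MPS profiling in S. cerevisiae of the tFT-X12 degron library: putative degron peptides plus stable controls, 12 aa, fused to the C-terminus of a sfGFP-mCherry timer. Cells are FACS-sorted into 8 mCherry/sfGFP bins and deep-sequenced. PSI runs from 0 (unstable) to 1 (stable). Backgrounds are wild type, das1Δ and doa10Δ at 30 °C, and wild type, das1Δ, cdc34-1 and cdc53-1 at 37 °C; 2-3 technical replicates each.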

Saccharomyces cerevisiae [2] = test: as above; settings: genetic background: wild type; temperature: 30 C
[3] = genetic background: cdc34-1, temperature: 37 C
[4] = genetic background: cdc53-1, temperature: 37 C
[5] = genetic background: das1 deletion, temperature: 30 C
[6] = genetic background: das1 deletion, temperature: 37 C
[7] = genetic background: doa10 deletion, temperature: 30 C
[8] = genetic background: wild type, temperature: 30 C
[9] = genetic background: wild type, temperature: 37 C
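Note: PSI is a weighted mean of sequencing reads over stability bins, variants kept only with over 10 reads, mCherry proximal and sfGFP distal, peptide attached via GGGS linker.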

Row | Sequence | protein stability index (Saccharomyces cerevisiae [1]; [3]) | protein stability index (Saccharomyces cerevisiae [1]; [4]) | protein stability index (Saccharomyces cerevisiae [1]; [5]) | protein stability index (Saccharomyces cerevisiae [1]; [6]) | protein stability index (Saccharomyces cerevisiae [1]; [7]) | protein stability index (Saccharomyces cerevisiae [1]; [8]) | protein stability index (Saccharomyces cerevisiae [1]; [9]) | protein stability index (Saccharomyces cerevisiae [2])
1 | DLDLLTKFSKEC | 0.702 ± 0.028 | 0.77 ± 0.013 | 0.628 ± 0.043 | 0.743 ± 0.028 | 0.4783 ± 0.0024 | 0.503 ± 0.025 | 0.656 ± 0.018 | 0.466 ± 0.03
2 | DRHCLVSLSPDG | 0.64 ± 0.03 | 0.665 ± 0.03 | 0.618 ± 0.015 | 0.686 ± 0.029 | 0.623 ± 0.016 | 0.6079 ± 0.0033 | 0.678 ± 0.033 | 0.5 ± 0.1
3 | DRLAVLVLLRVY | 0.0219 ± 0.0022 | 0.0458 ± 0.013 | 0.137 ± 0.041 | 0.182 ± 0.0035 | 0.0574 ± 0.01 | 0.0636 ± 0.018 | 0.0571 ± 0.016 | 0.109 ± 0.017
4 | DRRFLVMISVSL | 0.33 ± 0.01 | 0.357 ± 0.016 | 0.272 ± 0.045 | 0.458 ± 0.008 | 0.251 ± 0.0083 | 0.262 ± 0.028 | 0.414 ± 0.0086 | 0.398 ± 0.039
5 | DRSPLPAIFVAQ | 0.7 ± 0.028 | 0.746 ± 0.021 | 0.674 ± 0.013 | 0.7428 ± 0.0073 | 0.665 ± 0.013 | 0.643 ± 0.012 | 0.733 ± 0.016 | 0.681 ± 0.047
6 | DTAFLLVVVVGR | 0.309 ± 0.0076 | 0.358 ± 0.036 | 0.257 ± 0.028 | 0.446 ± 0.017 | 0.213 ± 0.0084 | 0.232 ± 0.032 | 0.411 ± 0.029 | 0.373 ± 0.042
7 | DYIFVYAVMFMR | 0.14 ± 0.046 | 0.292 ± 0.046 | 0.152 ± 0.026 | 0.319 ± 0.02 | 0.116 ± 0.0035 | 0.118 ± 0.031 | 0.308 ± 0.02 | 0.265 ± 0.045
8 | EFCITAFVSVLT | 0.452 ± 0.029 | 0.431 ± 0.017 | 0.324 ± 0.033 | 0.483 ± 0.017 | 0.287 ± 0.011 | 0.329 ± 0.025 | 0.462 ± 0.0064 | 0.435 ± 0.012
9 | EGLRVSVCAWVM | 0.38 ± 0.043 | 0.467 ± 0.0075 | 0.313 ± 0.03 | 0.4385 ± 0.0017 | 0.253 ± 0.019 | 0.277 ± 0.013 | 0.421 ± 0.0079 | 0.339 ± 0.023
10 | EHIRWLLPKHCL | 0.681 ± 0.027 | 0.73 ± 0.026 | 0.647 ± 0.03 | 0.725 ± 0.03 | 0.2907 ± 0.0018 | 0.314 ± 0.017 | 0.613 ± 0.063 | 0.454 ± 0.041
11 | EIKTEIGKKKKN | 0.632 ± 0.2 | 0.671 ± 0.022 | 0.723 ± 0.05 | 0.658 ± 0.045 | 0.541 ± 0.0061 | 0.61 ± 0.028 | 0.608 ± 0.067 | 0.503 ± 0.0079
12 | EINRKKRKTKIN | 0.704 ± 0.047 | 0.7155 ± 0.0039 | 0.67 ± 0.047 | 0.771 ± 0.011 | 0.312 ± 0.023 | 0.373 ± 0.018 | 0.465 ± 0.044 | 0.436 ± 0.04
13 | ERGSLPRIHHLI | 0.6542 ± 0.0035 | 0.754 ± 0.017 | 0.688 ± 0.085 | 0.736 ± 0.011 | 0.127 ± 0.012 | 0.168 ± 0.034 | 0.31 ± 0.02 | 0.257 ± 0.0082
14 | ERLVFKRWYLCL | 0.585 ± 0.028 | 0.605 ± 0.062 | 0.571 ± 0.033 | 0.7056 ± 0.0052 | 0.0726 ± 0.026 | 0.0951 ± 0.039 | 0.136 ± 0.0091 | 0.123 ± 0.018
15 | ESCVRSRRVLLC | 0.564 ± 0.063 | 0.71 ± 0.032 | 0.621 ± 0.013 | 0.73 ± 0.027 | 0.129 ± 0.044 | 0.127 ± 0.017 | 0.196 ± 0.0075 | 0.221 ± 0.026
16 | EVPVIGVLRSLL | 0.9376 ± 0.009 | 0.918 ± 0.014 | 0.804 ± 0.018 | 0.8784 ± 0.0044 | 0.773 ± 0.027 | 0.78 ± 0.023 | 0.847 ± 0.017 | 0.743 ± 0.043
17 | EVSIISECKVAS | 0.5081 ± 0.0025 | 0.639 ± 0.059 | 0.44 ± 0.019 | 0.585 ± 0.026 | 0.145 ± 0.013 | 0.175 ± 0.014 | 0.281 ± 0.015 | 0.258 ± 0.011
18 | FALAYFFVLKSF | 0.228 ± 0.019 | 0.246 ± 0.057 | 0.243 ± 0.045 | 0.423 ± 0.0084 | 0.0908 ± 0.011 | 0.0862 ± 0.02 | 0.1132 ± 0.001 | 0.172 ± 0.0026
19 | FARYLRSMYILF | 0.546 ± 0.026 | 0.54989 ± 0.0003 | 0.5426 ± 0.0032 | 0.6721 ± 0.0049 | 0.369 ± 0.014 | 0.343 ± 0.019 | 0.462 ± 0.0051 | 0.409 ± 0.029
20 | FAVLWFLYWCSW | 0.347 ± 0.0065 | 0.376 ± 0.019 | 0.282 ± 0.026 | 0.422 ± 0.013 | 0.245 ± 0.025 | 0.261 ± 0.044 | 0.387 ± 0.0054 | 0.348 ± 0.063

Row | Sequence | protein stability index (Saccharomyces cerevisiae [1]; [3]) | protein stability index (Saccharomyces cerevisiae [1]; [4]) | protein stability index (Saccharomyces cerevisiae [1]; [5]) | protein stability index (Saccharomyces cerevisiae [1]; [6]) | protein stability index (Saccharomyces cerevisiae [1]; [7]) | protein stability index (Saccharomyces cerevisiae [1]; [8]) | protein stability index (Saccharomyces cerevisiae [1]; [9]) | protein stability index (Saccharomyces cerevisiae [2])
21 | FCCSFFLCVCFV | 0.349 ± 0.036 | 0.371 ± 0.0043 | 0.309 ± 0.019 | 0.409 ± 0.007 | 0.29 ± 0.017 | 0.276 ± 0.034 | 0.348 ± 0.013 | 0.392 ± 0.0044
22 | FCLSPILLLRFL | 0.268 ± 0.004 | 0.261 ± 0.012 | 0.355 ± 0.024 | 0.439 ± 0.0047 | 0.219 ± 0.022 | 0.174 ± 0.024 | 0.225 ± 0.012 | 0.213 ± 0.034
23 | FCRPCCLIVFVV | 0.236 ± 0.026 | 0.295 ± 0.029 | 0.253 ± 0.036 | 0.467 ± 0.0059 | 0.122 ± 0.0099 | 0.128 ± 0.019 | 0.126 ± 0.019 | 0.184 ± 0.037
24 | FFCRARHRLYVA | 0.537 ± 0.044 | 0.626 ± 0.059 | 0.626 ± 0.012 | 0.675 ± 0.0094 | 0.0986 ± 0.0092 | 0.105 ± 0.0095 | 0.152 ± 0.061 | 0.233 ± 0.023
25 | FFFFLFRSIFLS | 0.146 ± 0.12 | 0.124 ± 0.013 | 0.293 ± 0.05 | 0.394 ± 0.094 | 0.179 ± 0.0022 | 0.118 ± 0.012 | 0.138 ± 0.011 | 0.152 ± 0.0068
26 | FFFFSMLIFCAV | 0.06041 ± 0.00022 | 0.106 ± 0.025 | 0.156 ± 0.016 | 0.226 ± 0.013 | 0.129 ± 0.01 | 0.136 ± 0.0094 | 0.192 ± 0.0081 | 0.191 ± 0.0034
27 | FFFLLPRLFRCV | 0.791 ± 0.053 | 0.835 ± 0.012 | 0.707 ± 0.03 | 0.773 ± 0.011 | 0.445 ± 0.018 | 0.449 ± 0.012 | 0.5611 ± 0.0017 | 0.45 ± 0.017
28 | FFLFCWFVPRFS | 0.454 ± 0.0056 | 0.512 ± 0.0079 | 0.379 ± 0.027 | 0.553 ± 0.012 | 0.349 ± 0.014 | 0.351 ± 0.027 | 0.498 ± 0.016 | 0.435 ± 0.018
29 | FFLLCFMMCVLL | 0.291 ± 0.015 | 0.291 ± 0.014 | 0.289 ± 0.043 | 0.374 ± 0.025 | 0.288 ± 0.01 | 0.219 ± 0.032 | 0.348 ± 0.01 | 0.259 ± 0.053
30 | FFLPIFFSIFLS | 0.068 ± 0.038 | 0.0346 ± 0.0085 | 0.152 ± 0.017 | 0.198 ± 0.0023 | 0.281 ± 0.0056 | 0.108 ± 0.022 | 0.155 ± 0.0049 | 0.156 ± 0.013
31 | FFLSAFFFFFLF | 0.342 ± 0.04 | 0.346 ± 0.017 | 0.359 ± 0.015 | 0.4409 ± 0.0039 | 0.3669 ± 0.002 | 0.291 ± 0.027 | 0.36913 ± 0.00026 | 0.361 ± 0.0086
32 | FFMLLYSFFTFD | 0.434 ± 0.0044 | 0.50402 ± 2.8e-06 | 0.38 ± 0.033 | 0.51926 ± 0.00029 | 0.348 ± 0.004 | 0.375 ± 0.035 | 0.506 ± 0.024 | 0.418 ± 0.014
33 | FFSSSASVLFII | 0.686 ± 0.11 | 0.7852 ± 0.0067 | 0.663 ± 0.029 | 0.79 ± 0.0075 | 0.19 ± 0.015 | 0.198 ± 0.016 | 0.394 ± 0.039 | 0.299 ± 0.016
34 | FFTLLLFLFFSV | 0.352 ± 0.035 | 0.278 ± 0.032 | 0.3 ± 0.026 | 0.435 ± 0.039 | 0.395 ± 0.0048 | 0.293 ± 0.03 | 0.411 ± 0.022 | 0.321 ± 0.0086
35 | FFVACCSFVFLL | 0.369 ± 0.024 | 0.436 ± 0.03 | 0.35 ± 0.022 | 0.478 ± 0.0052 | 0.197 ± 0.007 | 0.203 ± 0.022 | 0.316 ± 0.019 | 0.335 ± 0.066
36 | FGFGSSRFLLCL | 0.677 ± 0.015 | 0.731 ± 0.0042 | 0.609 ± 0.027 | 0.743 ± 0.0099 | 0.3357 ± 0.0026 | 0.384 ± 0.028 | 0.604 ± 0.026 | 0.471 ± 0.029
37 | FGFLVVLFDCVR | 0.336 ± 0.0095 | 0.437 ± 0.015 | 0.327 ± 0.034 | 0.474 ± 0.017 | 0.2652 ± 0.00067 | 0.291 ± 0.028 | 0.464 ± 0.0057 | 0.436 ± 0.07
38 | FGVFLLWCVLLL | 0.226 ± 0.0076 | 0.297 ± 0.017 | 0.213 ± 0.023 | 0.339 ± 0.013 | 0.217 ± 0.01 | 0.191 ± 0.013 | 0.352 ± 0.075 | 0.274 ± 0.077
39 | FIAVSLSVFLVF | 0.159 ± 0.015 | 0.286 ± 0.0034 | 0.189 ± 0.022 | 0.322 ± 0.012 | 0.1758 ± 0.00094 | 0.181 ± 0.024 | 0.287 ± 0.003 | 0.234 ± 0.011
